Experimental data published in IntAct's records for PubMed 20543827.

B1: Retinoic acid receptor alpha (Homo sapiens), P10276 (parent)
chain: MASNSSSCPTPGGGHLNGYPVPPYAFFFPPMLGGLSPPGALTTLQHQLPVSGYSTPSPATIETQSSSSEEIVPSPPSPPPLPRIYKPCFVCQDKSSGYHYGVSACEGCKGFFRRSIQKNMVYTCHRDKNCIINKVTRNRCQYCRLQKCFEVGMSKESVRNDRNKKKKEVPKPECSESYTLTPEVGELIEKVRKAHQETFPALCQLGKYTTNNSSEQRVSLDIDLWDKFSELSTKCIIKTVEFAKQLPGFTTLTIADQITLLKAACLDILILRICTRYTPEQDTMTFSDGLTLNRTQMHNAGFGPLTDLVFAFANQLLPLEMDDAETGLLSAICLICGDRQDLEQPDRVDMLQEPLLEALKVYVRKRRPSRPHMFPKMLMKITDLRSISAKGAERVITLKMEIPGSMPPLIQEMLENSEGLDTLSGQPGGGGRDGGGLAPPPGSCSPSLSPSSNRSSPATHSP

Variants of: B1
Settings: with ncor1_human NCOR1, O75376
Sequence of ncor1_human NCOR1, O75376 (O75376 whole entry): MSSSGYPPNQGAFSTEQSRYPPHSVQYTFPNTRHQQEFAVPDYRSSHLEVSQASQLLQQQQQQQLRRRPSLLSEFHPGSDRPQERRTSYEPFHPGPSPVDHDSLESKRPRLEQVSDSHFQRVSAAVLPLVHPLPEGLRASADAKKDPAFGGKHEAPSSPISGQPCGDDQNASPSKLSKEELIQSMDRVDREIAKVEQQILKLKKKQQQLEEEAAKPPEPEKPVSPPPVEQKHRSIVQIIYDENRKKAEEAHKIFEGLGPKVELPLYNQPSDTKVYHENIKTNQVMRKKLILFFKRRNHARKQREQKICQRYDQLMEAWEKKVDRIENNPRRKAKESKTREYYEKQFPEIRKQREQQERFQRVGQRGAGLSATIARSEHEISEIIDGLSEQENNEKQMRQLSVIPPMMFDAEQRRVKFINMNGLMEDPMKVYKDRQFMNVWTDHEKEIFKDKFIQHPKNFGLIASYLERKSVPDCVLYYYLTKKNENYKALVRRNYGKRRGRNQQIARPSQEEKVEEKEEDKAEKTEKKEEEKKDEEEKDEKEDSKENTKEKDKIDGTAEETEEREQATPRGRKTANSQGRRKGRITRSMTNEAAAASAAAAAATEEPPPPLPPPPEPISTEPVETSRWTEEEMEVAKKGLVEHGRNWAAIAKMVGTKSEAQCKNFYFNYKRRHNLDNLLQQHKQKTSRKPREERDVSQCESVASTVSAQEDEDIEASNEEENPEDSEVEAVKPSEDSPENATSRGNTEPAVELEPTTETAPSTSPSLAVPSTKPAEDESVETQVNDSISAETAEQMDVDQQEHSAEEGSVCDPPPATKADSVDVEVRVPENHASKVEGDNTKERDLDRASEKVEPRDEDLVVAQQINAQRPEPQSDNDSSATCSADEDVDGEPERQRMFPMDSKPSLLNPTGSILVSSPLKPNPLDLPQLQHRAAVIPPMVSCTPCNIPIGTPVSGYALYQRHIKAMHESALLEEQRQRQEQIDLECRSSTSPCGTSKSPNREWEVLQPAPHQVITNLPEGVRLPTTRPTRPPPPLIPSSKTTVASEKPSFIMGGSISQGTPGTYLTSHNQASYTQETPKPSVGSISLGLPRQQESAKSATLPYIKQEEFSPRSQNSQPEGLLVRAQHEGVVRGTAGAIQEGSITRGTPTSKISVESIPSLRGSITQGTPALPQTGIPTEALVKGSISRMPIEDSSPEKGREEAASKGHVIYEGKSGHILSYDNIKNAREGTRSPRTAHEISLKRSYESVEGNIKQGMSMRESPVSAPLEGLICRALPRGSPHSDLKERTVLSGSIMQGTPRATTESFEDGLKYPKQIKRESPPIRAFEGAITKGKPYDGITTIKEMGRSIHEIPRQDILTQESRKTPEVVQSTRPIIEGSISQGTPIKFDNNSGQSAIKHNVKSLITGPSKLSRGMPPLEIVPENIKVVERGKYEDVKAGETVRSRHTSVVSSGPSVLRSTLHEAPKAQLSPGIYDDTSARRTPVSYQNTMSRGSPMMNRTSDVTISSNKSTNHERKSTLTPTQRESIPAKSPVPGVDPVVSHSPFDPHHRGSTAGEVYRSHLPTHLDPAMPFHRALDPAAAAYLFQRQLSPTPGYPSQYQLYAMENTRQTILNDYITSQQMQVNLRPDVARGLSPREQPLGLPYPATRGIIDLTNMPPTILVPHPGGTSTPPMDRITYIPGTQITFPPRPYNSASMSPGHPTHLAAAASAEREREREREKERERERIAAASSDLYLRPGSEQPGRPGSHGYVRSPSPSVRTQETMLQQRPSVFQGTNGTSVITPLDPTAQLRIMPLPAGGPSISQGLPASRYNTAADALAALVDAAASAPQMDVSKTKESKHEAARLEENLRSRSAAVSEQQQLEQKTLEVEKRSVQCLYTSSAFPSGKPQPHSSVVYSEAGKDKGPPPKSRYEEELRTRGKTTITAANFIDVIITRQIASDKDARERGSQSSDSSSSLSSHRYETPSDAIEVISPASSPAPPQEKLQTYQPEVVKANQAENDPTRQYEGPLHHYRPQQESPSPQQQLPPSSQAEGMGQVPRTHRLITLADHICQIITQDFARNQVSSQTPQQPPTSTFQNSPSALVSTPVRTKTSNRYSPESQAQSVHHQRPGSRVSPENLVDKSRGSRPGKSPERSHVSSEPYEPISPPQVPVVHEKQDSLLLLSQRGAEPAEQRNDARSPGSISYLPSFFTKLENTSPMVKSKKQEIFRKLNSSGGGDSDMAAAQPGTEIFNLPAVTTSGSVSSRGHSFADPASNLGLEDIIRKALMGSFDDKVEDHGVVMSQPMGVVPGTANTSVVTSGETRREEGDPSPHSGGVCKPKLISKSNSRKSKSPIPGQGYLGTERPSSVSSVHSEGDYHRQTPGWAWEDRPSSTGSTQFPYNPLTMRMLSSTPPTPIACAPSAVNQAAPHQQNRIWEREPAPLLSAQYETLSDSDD

| effect of a mutation on the interaction | Variant |
| --- | --- |
| decreasing interaction | MASNSSSCPTPGGGHLNGYPVPPYAFFFPPMLGGLSPPGALTTLQHQLPVSGYSTPSPATIETQSSSSEEIVPSPPSPPPLPRIYKPCFVCQDKSSGYHYGVSACEGCKGFFRRSIQKNMVYTCHRDKNCIINKVTRNRCQYCRLQKCFEVGMSKESVRNDRNKKKKEVPKPECSESYTLTPEVGELIEKVRKAHQETFPALCQLGKYTTNNSSEQRVSLDIDLWDKFSELSTKCIIKTVEFAKQLPGFTTLTIADQITLLKAACLDILILRICTRYTPEQDTMTFSDGLTLNRTQMHNAGFGPLTDLVFAFANQLLPLEMDDAETGLLSAICLICGDRQDLEQPDRVDMLQEPLLEALKVYVRKRRPSRPHMFPKMLMKITDLRSISAKGAERVETLKMEIPGSMPPLIQEMLENSEGLDTLSGQPGGGGRDGGGLAPPPGSCSPSLSPSSNRSSPATHSP [I396E] |

Variants of: B1
Settings: with ncor1_mouse Ncor1, Q60974

| effect of a mutation on the interaction | Variant |
| --- | --- |
| disrupting interaction | MASNSSSCPTPGGGHLNGYPVPPYAFFFPPMLGGLSPPGALTTLQHQLPVSGYSTPSPATIETQSSSSEEIVPSPPSPPPLPRIYKPCFVCQDKSSGYHYGVSACEGCKGFFRRSIQKNMVYTCHRDKNCIINKVTRNRCQYCRLQKCFEVGMSKESVRNDRNKKKKEVPKPECSESYTLTPEVGELIEKVRKAHQETFPALCQLGKYTTNNSSEQRVSLDIDLWDKFSELSTKCIIKTVEFAKQLPGFTTLTIADQITLLKAACLDILILRICTRYTPEQDTMTFSDGLTLNRTQMHNAGFGPLTDLVFAFANQLLPLEMDDAETGLLSAICLICGDRQDLEQPDRVDMLQEPLLEALKVYVRKRRPSRPHMFPKMLMKITDLRSISAKGAERVETLKMEIPGSMPPLIQEMLENSEGLDTLSGQPGGGGRDGGGLAPPPGSCSPSLSPSSNRSSPATHSP [I396E] |

Variants of: B1
Settings: with ncor2_human NCOR2, Q9Y618
Sequence of ncor2_human NCOR2, Q9Y618 (Q9Y618 whole entry): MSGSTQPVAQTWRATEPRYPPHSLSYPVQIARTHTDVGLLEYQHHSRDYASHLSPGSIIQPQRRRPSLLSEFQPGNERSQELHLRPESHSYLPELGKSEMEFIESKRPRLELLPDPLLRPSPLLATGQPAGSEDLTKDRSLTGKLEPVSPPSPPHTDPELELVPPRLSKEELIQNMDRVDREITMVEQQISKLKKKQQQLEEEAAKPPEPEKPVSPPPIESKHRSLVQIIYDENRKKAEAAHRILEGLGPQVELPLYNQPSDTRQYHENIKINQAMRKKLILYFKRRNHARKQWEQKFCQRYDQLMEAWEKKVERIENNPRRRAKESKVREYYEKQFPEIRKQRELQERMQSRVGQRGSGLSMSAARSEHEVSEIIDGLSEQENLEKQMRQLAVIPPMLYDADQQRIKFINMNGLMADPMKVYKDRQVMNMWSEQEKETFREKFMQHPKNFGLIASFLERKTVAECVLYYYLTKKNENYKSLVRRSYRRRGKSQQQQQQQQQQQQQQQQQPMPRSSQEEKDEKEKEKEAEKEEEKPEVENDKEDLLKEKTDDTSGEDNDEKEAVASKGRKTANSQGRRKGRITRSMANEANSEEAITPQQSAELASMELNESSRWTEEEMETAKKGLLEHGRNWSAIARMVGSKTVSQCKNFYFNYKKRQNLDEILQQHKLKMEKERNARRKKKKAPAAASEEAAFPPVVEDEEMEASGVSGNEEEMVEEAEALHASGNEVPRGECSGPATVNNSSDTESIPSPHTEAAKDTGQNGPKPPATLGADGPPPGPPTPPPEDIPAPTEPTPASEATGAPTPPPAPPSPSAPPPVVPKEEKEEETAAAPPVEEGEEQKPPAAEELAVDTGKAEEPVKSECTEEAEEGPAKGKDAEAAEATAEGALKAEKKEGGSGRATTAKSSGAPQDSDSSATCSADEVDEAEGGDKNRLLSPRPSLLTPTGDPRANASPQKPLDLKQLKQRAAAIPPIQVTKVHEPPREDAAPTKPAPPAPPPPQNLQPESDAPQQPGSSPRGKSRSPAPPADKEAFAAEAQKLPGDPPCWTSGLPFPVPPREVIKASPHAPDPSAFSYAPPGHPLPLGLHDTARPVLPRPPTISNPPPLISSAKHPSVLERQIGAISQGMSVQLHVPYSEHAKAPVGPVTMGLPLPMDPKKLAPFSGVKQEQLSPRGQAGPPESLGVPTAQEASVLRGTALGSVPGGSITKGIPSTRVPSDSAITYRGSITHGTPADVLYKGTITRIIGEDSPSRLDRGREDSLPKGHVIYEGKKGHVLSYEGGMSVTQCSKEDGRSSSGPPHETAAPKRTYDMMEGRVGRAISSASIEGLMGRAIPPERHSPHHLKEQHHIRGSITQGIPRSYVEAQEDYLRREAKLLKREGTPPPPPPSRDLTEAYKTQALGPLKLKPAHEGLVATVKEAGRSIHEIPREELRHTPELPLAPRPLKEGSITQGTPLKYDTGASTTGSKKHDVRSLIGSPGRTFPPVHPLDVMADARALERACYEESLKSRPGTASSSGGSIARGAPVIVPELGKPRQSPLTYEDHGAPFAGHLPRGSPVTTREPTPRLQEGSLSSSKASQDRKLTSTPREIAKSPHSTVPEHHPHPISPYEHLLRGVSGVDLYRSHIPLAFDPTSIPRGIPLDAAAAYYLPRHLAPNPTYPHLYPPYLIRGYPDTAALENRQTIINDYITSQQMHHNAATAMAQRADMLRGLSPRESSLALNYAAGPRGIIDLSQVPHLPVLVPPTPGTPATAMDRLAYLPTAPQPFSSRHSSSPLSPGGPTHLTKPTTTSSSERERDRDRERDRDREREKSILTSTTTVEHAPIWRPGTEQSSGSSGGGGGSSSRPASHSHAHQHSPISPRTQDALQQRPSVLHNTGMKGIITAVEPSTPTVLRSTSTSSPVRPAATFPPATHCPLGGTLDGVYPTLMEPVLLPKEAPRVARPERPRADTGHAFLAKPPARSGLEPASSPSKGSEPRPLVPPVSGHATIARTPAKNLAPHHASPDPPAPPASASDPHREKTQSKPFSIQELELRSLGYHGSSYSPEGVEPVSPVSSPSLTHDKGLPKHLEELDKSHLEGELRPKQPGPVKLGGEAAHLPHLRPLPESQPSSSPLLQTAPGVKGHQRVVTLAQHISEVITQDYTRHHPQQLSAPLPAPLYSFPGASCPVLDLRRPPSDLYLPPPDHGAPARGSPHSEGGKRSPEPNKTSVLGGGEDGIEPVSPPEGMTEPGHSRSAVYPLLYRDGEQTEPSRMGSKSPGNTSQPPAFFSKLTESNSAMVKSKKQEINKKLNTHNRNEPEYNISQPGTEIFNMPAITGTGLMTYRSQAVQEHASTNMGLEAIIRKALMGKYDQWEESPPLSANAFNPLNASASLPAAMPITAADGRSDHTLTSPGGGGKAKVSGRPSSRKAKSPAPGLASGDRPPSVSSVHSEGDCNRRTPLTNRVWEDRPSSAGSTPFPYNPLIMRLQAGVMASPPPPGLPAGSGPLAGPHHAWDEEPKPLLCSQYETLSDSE

| effect of a mutation on the interaction | Variant |
| --- | --- |
| disrupting interaction | MASNSSSCPTPGGGHLNGYPVPPYAFFFPPMLGGLSPPGALTTLQHQLPVSGYSTPSPATIETQSSSSEEIVPSPPSPPPLPRIYKPCFVCQDKSSGYHYGVSACEGCKGFFRRSIQKNMVYTCHRDKNCIINKVTRNRCQYCRLQKCFEVGMSKESVRNDRNKKKKEVPKPECSESYTLTPEVGELIEKVRKAHQETFPALCQLGKYTTNNSSEQRVSLDIDLWDKFSELSTKCIIKTVEFAKQLPGFTTLTIADQITLLKAACLDILILRICTRYTPEQDTMTFSDGLTLNRTQMHNAGFGPLTDLVFAFANQLLPLEMDDAETGLLSAICLICGDRQDLEQPDRVDMLQEPLLEALKVYVRKRRPSRPHMFPKMLMKITDLRSISAKGAERVETLKMEIPGSMPPLIQEMLENSEGLDTLSGQPGGGGRDGGGLAPPPGSCSPSLSPSSNRSSPATHSP [I396E] |

Variants of: B1
Settings: with ncor2_human NCOR2, Q9Y618
Remark: another data set of the same source

| effect of a mutation on the interaction | Variant |
| --- | --- |
| decreasing interaction | MASNSSSCPTPGGGHLNGYPVPPYAFFFPPMLGGLSPPGALTTLQHQLPVSGYSTPSPATIETQSSSSEEIVPSPPSPPPLPRIYKPCFVCQDKSSGYHYGVSACEGCKGFFRRSIQKNMVYTCHRDKNCIINKVTRNRCQYCRLQKCFEVGMSKESVRNDRNKKKKEVPKPECSESYTLTPEVGELIEKVRKAHQETFPALCQLGKYTTNNSSEQRVSLDIDLWDKFSELSTKCIIKTVEFAKQLPGFTTLTIADQITLLKAACLDILILRICTRYTPEQDTMTFSDGLTLNRTQMHNAGFGPLTDLVFAFANQLLPLEMDDAETGLLSAICLICGDRQDLEQPDRVDMLQEPLLEALKVYVRKRRPSRPHMFPKMLMKITDLRSISAKGAERVETLKMEIPGSMPPLIQEMLENSEGLDTLSGQPGGGGRDGGGLAPPPGSCSPSLSPSSNRSSPATHSP [I396E] |
